According to PMC3511314, “Functional Characterization of Two M42 Aminopeptidases Erroneously Annotated as Cellulases” (PLoS ONE, 2012):

B1: YpdE, M42 aminopeptidase of E. coli (enzyme, UniProt P77585 1-345, looked up)
chain: MDLSLLKALSEADAIASSEQEVRQILLEEADRLQKEVRFDGLGSVLIRLNESTGPKVMICAHMDEVGFMVRSISREGAIDVLPVGNVRMAARQLQPVRITTREECKIPGLLDGDRQGNDVSAMRVDIGARSYDEVMQAGIRPGDRVTFDTTFQVLPHQRVMGKAFDDRLGCYLLVTLLRELHDAELPAEVWLVASSSEEVGLRGGQTATRAVSPDVAIVLDTACWAKNFDYGAANHRQIGNGPMLVLSDKSLIAPPKLTAWVETVAAEIGVPLQADMFSNGGTDGGAVHLTGTGVPTVVMGPATRHGHCAASIADCRDILQMQQLLSALIQRLTRETVVQLTDFR
notes: YpdE, one of three M42 aminopeptidases of E. coli; Only named in the discussion as unpublished data; the construct is not described; copies: 12
B2: TmPep1050 protein of Thermotoga maritima (TM1050 ORF) (enzyme, UniProt Q9X0E0 1-331, looked up)
chain: MKELIRKLTEAFGPSGREEEVRSIILEELEGHIDGHRIDGLGNLIVWKGSGEKKVILDAHIDEIGVVVTNVDDKGFLTIEPVGGVSPYMLLGKRIRFENGTIGVVGMEGETTEERQENVRKLSFDKLFIDIGANSREEAQKMCPIGSFGVYDSGFVEVSGKYVSKAMDDRIGCAVIVEVFKRIKPAVTLYGVFSVQEEVGLVGASVAGYGVPADEAIAIDVTDSADTPKAIKRHAMRLSGGPALKVKDRASISSKRILENLIEIAEKFDIKYQMEVLTFGGTNAMGYQRTREGIPSATVSIPTRYVHSPSEMIAPDDVEATVDLLIRYLGA
notes: TmPep1050, M42 aminopeptidase of Thermotoga maritima, product of the TM1050 ORF carried by the JCSG plasmid TmCD00089984; predicted molecular weight of the monomer 37.5 kDa; the tag of the JCSG construct is not described; also called 3ISX; source: E. coli MC1061, plasmid TmCD00089984, purified (heat step 60°C, Ni-NTA IMAC, Superdex 200)

Columns and labels:
[1] = biological target: the molecule itself; test: not stated; unpublished data; oligomeric state of YpdE, method not given
[2] = biological target: the molecule itself; test: SEC; gel filtration on Superdex 200 (16/70 column), final step of the purification, 50 mM Tris, 300 mM NaCl pH 7.3; for CelM all buffers with 1 mM glutathione; oligomer size from the apparent mass at elution

Row | Protein | stoichiometry N [1] | stoichiometry N [2]
1 | B1 | 12 | –
2 | B2 | – | 2
